This note sets out measurements from patent US20250011406A1.

Experiment [1] concerns the target PfCSPm (PfCSP_SAmut_C5S), stabilized mutant form of PfCSP (Plasmodium falciparum) (UniProt Q7K740). Put plainly: ITC, antibody titrated into PfCSPm, pH 7.4, 25 C, two sets of sites; second site.
For experiment [2] the target is unchanged. Briefly: ITC, two-site model.
Experiment [3] has the same target. Put plainly: ITC, antibody titrated into PfCSPm; first site.
For experiment [4] the target is unchanged. Briefly: ITC, antibody titrated into PfCSPm, pH 7.4, 25 C, two sets of sites; first (junctional) site.
For experiment [5] the target is unchanged. Briefly: ITC, antibody titrated into PfCSPm; second site.
The target is the same in experiment [6]. Put plainly: ITC.
Experiment [7] has the same target. Briefly: ITC, two-site model [lower table].

As for mature CIS43 antibody (IgG), in experiment [1], the dissociation constant Kd worked out at 63 nM. In addition, in experiment [2], the -TΔS1 amounted to 13.4 kcal/mol, the -TΔS2 amounted to 0.9 kcal/mol, the ΔG1 is -10.6 kcal/mol and the ΔG2 was -9.8 kcal/mol. Also, in experiment [2], the ΔH1 was -24 kcal/mol and the ΔH2 is -10.7 kcal/mol. In experiment [3], the stoichiometry turned out to be 2.4. Moreover, the dissociation constant Kd in experiment [4] is 18 nM. In experiment [5], the stoichiometry was determined as 5.8.

“mature CIS43 with L98I in the heavy chain (antibody)”: in experiment [6], the Kd amounted to 11 nM, the change in ΔG stood at 0.2 kcal/mol and the fold affinity increase over mature CIS43 turned out to be 1.6 fold. Further, in experiment [7], the -TΔS1 stood at 8.8 kcal/mol, the -TΔS2 is -0.9 kcal/mol, the ΔG1 is -10.8 kcal/mol and the ΔG2 was -10.2 kcal/mol. In addition, in experiment [7], the ΔH1 was -19.6 kcal/mol and the ΔH2 is -9.3 kcal/mol.
